Test results reported in patent US20080089862A1 (published 2008).

Tests used:
Assay in all cases: ELISA
[1] = target: peptide aptamer RB15 (MBP with C-terminal peptide […]) (Escherichia coli (strain K12), UniProt P0AEX9 29-392 = MBP)
[2] = target: peptide aptamer NNS8/N7 (MBP with C-terminal peptide […]) (Escherichia coli (strain K12), UniProt P0AEX9 29-392 = MBP)
[3] = target: peptide aptamer NNS8/N8 (MBP with C-terminal peptide […]) (Escherichia coli (strain K12), UniProt P0AEX9 29-392 = MBP)
[4] = target: peptide aptamer NNS8/N21 (MBP with C-terminal peptide […]) (Escherichia coli (strain K12), UniProt P0AEX9 29-392 = MBP)
[5] = target: peptide aptamer RB16 (MBP with C-terminal peptide […]) (Escherichia coli (strain K12), UniProt P0AEX9 29-392 = MBP)
[6] = target: peptide aptamer NNS8/N10 (MBP with C-terminal peptide […]) (Escherichia coli (strain K12), UniProt P0AEX9 29-392 = MBP)
[7] = target: peptide aptamer RB18 (MBP with C-terminal peptide […]) (Escherichia coli (strain K12), UniProt P0AEX9 29-392 = MBP)
[8] = target: peptide aptamer RB13 (MBP with C-terminal peptide […]) (Escherichia coli (strain K12), UniProt P0AEX9 29-392 = MBP)
[9] = target: peptide aptamer NNS8/N5 (MBP with C-terminal peptide […]) (Escherichia coli (strain K12), UniProt P0AEX9 29-392 = MBP)
[10] = target: peptide aptamer NNS8/N22 (MBP with C-terminal peptide […]) (Escherichia coli (strain K12), UniProt P0AEX9 29-392 = MBP)
[11] = target: peptide aptamer RB17 (MBP with C-terminal peptide […]) (Escherichia coli (strain K12), UniProt P0AEX9 29-392 = MBP)
[12] = target: peptide aptamer NNS8/N23 (MBP with C-terminal peptide […]) (Escherichia coli (strain K12), UniProt P0AEX9 29-392 = MBP)

Measured: binding result

B1: single-chain NS3 protease (scNS3) (enzyme)
chain: GSVVIVGRIILSGRAPITAYSQQTRGLLGCIITSLTGRDKNQVEGEVQVVSTATQSFLATCVNGVCWTVYHGAGSKTLAAPKGPITQMYTNVDQDLVGWPKPPGARSLTPCTCGSSDLYLVTRHADVIPVRRRGDSRGSLLSPRPVSYLKGSSGGPLLCPFGHAVGIFRAAVCTRGVAKAVDFVPVESMETTMRS
notes: domain: NS4A cofactor peptide;domain: NS3 protease domain
no binding: [1] | [2] | [3] | [4] | [5] | [6] | [7] | [8] | [9] | [10] | [11] | [12]
